Test results as given in patent US20150368311A1 (Sanofi, published 2015).
Non-standard residues stand in square brackets, D forms with d. No end group written: not given here. Ala(4-thiazolyl) = N[C@@H](Cc1cscn1)C(=O)O; Nle = CCCC[C@H](N)C(=O)O

B1: SEQ ID NO: 5 (peptide)
peptide: [Ala(4-thiazolyl)]SQGTFTSDYSKQLESRRAQEFIEWLLAGGPESGAPPPS-OH
modifications: N-terminus assumed
SMILES: CC[C@H](C)[C@H](NC(=O)[C@H](Cc1ccccc1)NC(=O)[C@H](CCC(=O)O)NC(=O)[C@H](CCC(N)=O)NC(=O)[C@H](C)NC(=O)[C@H](CCCNC(=N)N)NC(=O)[C@H](CCCNC(=N)N)NC(=O)[C@H](CO)NC(=O)[C@H](CCC(=O)O)NC(=O)[C@H](CC(C)C)NC(=O)[C@H](CCC(N)=O)NC(=O)[C@H](CCCCN)NC(=O)[C@H](CO)NC(=O)[C@H](Cc1ccc(O)cc1)NC(=O)[C@H](CC(=O)O)NC(=O)[C@H](CO)NC(=O)[C@@H](NC(=O)[C@H](Cc1ccccc1)NC(=O)[C@@H](NC(=O)CNC(=O)[C@H](CCC(N)=O)NC(=O)[C@H](CO)NC(=O)[C@@H](N)Cc1cscn1)[C@@H](C)O)[C@@H](C)O)C(=O)N[C@@H](CCC(=O)O)C(=O)N[C@@H](Cc1c[nH]c2ccccc12)C(=O)N[C@@H](CC(C)C)C(=O)N[C@@H](CC(C)C)C(=O)N[C@@H](C)C(=O)NCC(=O)NCC(=O)N1CCC[C@H]1C(=O)N[C@@H](CCC(=O)O)C(=O)N[C@@H](CO)C(=O)NCC(=O)N[C@@H](C)C(=O)N1CCC[C@H]1C(=O)N1CCC[C@H]1C(=O)N1CCC[C@H]1C(=O)N[C@@H](CO)C(=O)O
B2: SEQ ID NO: 6 (peptide)
peptide: [Ala(4-thiazolyl)]SQGTFTSDYSKQLESRRAQEFIEWLLATGPESGAPPPS-OH
modifications: N-terminus assumed
SMILES: CC[C@H](C)[C@H](NC(=O)[C@H](Cc1ccccc1)NC(=O)[C@H](CCC(=O)O)NC(=O)[C@H](CCC(N)=O)NC(=O)[C@H](C)NC(=O)[C@H](CCCNC(=N)N)NC(=O)[C@H](CCCNC(=N)N)NC(=O)[C@H](CO)NC(=O)[C@H](CCC(=O)O)NC(=O)[C@H](CC(C)C)NC(=O)[C@H](CCC(N)=O)NC(=O)[C@H](CCCCN)NC(=O)[C@H](CO)NC(=O)[C@H](Cc1ccc(O)cc1)NC(=O)[C@H](CC(=O)O)NC(=O)[C@H](CO)NC(=O)[C@@H](NC(=O)[C@H](Cc1ccccc1)NC(=O)[C@@H](NC(=O)CNC(=O)[C@H](CCC(N)=O)NC(=O)[C@H](CO)NC(=O)[C@@H](N)Cc1cscn1)[C@@H](C)O)[C@@H](C)O)C(=O)N[C@@H](CCC(=O)O)C(=O)N[C@@H](Cc1c[nH]c2ccccc12)C(=O)N[C@@H](CC(C)C)C(=O)N[C@@H](CC(C)C)C(=O)N[C@@H](C)C(=O)N[C@H](C(=O)NCC(=O)N1CCC[C@H]1C(=O)N[C@@H](CCC(=O)O)C(=O)N[C@@H](CO)C(=O)NCC(=O)N[C@@H](C)C(=O)N1CCC[C@H]1C(=O)N1CCC[C@H]1C(=O)N1CCC[C@H]1C(=O)N[C@@H](CO)C(=O)O)[C@@H](C)O
B3: SEQ ID NO: 7 (peptide)
peptide: [Ala(4-thiazolyl)]SQGTFTSDVSKQLESRRAQEFIEWLLATGPESGAPPPS-OH
modifications: N-terminus assumed
SMILES: CC[C@H](C)[C@H](NC(=O)[C@H](Cc1ccccc1)NC(=O)[C@H](CCC(=O)O)NC(=O)[C@H](CCC(N)=O)NC(=O)[C@H](C)NC(=O)[C@H](CCCNC(=N)N)NC(=O)[C@H](CCCNC(=N)N)NC(=O)[C@H](CO)NC(=O)[C@H](CCC(=O)O)NC(=O)[C@H](CC(C)C)NC(=O)[C@H](CCC(N)=O)NC(=O)[C@H](CCCCN)NC(=O)[C@H](CO)NC(=O)[C@@H](NC(=O)[C@H](CC(=O)O)NC(=O)[C@H](CO)NC(=O)[C@@H](NC(=O)[C@H](Cc1ccccc1)NC(=O)[C@@H](NC(=O)CNC(=O)[C@H](CCC(N)=O)NC(=O)[C@H](CO)NC(=O)[C@@H](N)Cc1cscn1)[C@@H](C)O)[C@@H](C)O)C(C)C)C(=O)N[C@@H](CCC(=O)O)C(=O)N[C@@H](Cc1c[nH]c2ccccc12)C(=O)N[C@@H](CC(C)C)C(=O)N[C@@H](CC(C)C)C(=O)N[C@@H](C)C(=O)N[C@H](C(=O)NCC(=O)N1CCC[C@H]1C(=O)N[C@@H](CCC(=O)O)C(=O)N[C@@H](CO)C(=O)NCC(=O)N[C@@H](C)C(=O)N1CCC[C@H]1C(=O)N1CCC[C@H]1C(=O)N1CCC[C@H]1C(=O)N[C@@H](CO)C(=O)O)[C@@H](C)O
B4: SEQ ID NO: 8 (peptide)
peptide: [Ala(4-thiazolyl)]SQGTFTSDISKQLESRRAQEFIEWLLATGPESGAPPPS-OH
modifications: N-terminus assumed
SMILES: CC[C@H](C)[C@H](NC(=O)[C@H](Cc1ccccc1)NC(=O)[C@H](CCC(=O)O)NC(=O)[C@H](CCC(N)=O)NC(=O)[C@H](C)NC(=O)[C@H](CCCNC(=N)N)NC(=O)[C@H](CCCNC(=N)N)NC(=O)[C@H](CO)NC(=O)[C@H](CCC(=O)O)NC(=O)[C@H](CC(C)C)NC(=O)[C@H](CCC(N)=O)NC(=O)[C@H](CCCCN)NC(=O)[C@H](CO)NC(=O)[C@@H](NC(=O)[C@H](CC(=O)O)NC(=O)[C@H](CO)NC(=O)[C@@H](NC(=O)[C@H](Cc1ccccc1)NC(=O)[C@@H](NC(=O)CNC(=O)[C@H](CCC(N)=O)NC(=O)[C@H](CO)NC(=O)[C@@H](N)Cc1cscn1)[C@@H](C)O)[C@@H](C)O)[C@@H](C)CC)C(=O)N[C@@H](CCC(=O)O)C(=O)N[C@@H](Cc1c[nH]c2ccccc12)C(=O)N[C@@H](CC(C)C)C(=O)N[C@@H](CC(C)C)C(=O)N[C@@H](C)C(=O)N[C@H](C(=O)NCC(=O)N1CCC[C@H]1C(=O)N[C@@H](CCC(=O)O)C(=O)N[C@@H](CO)C(=O)NCC(=O)N[C@@H](C)C(=O)N1CCC[C@H]1C(=O)N1CCC[C@H]1C(=O)N1CCC[C@H]1C(=O)N[C@@H](CO)C(=O)O)[C@@H](C)O
B5: SEQ ID NO: 36 (peptide)
peptide: HSQGTFTSDLSKQ[Nle]ESRRAQEFIEWLLATGPESGAPPPS-OH
modifications: N-terminus assumed
SMILES: CCCC[C@H](NC(=O)[C@H](CCC(N)=O)NC(=O)[C@H](CCCCN)NC(=O)[C@H](CO)NC(=O)[C@H](CC(C)C)NC(=O)[C@H](CC(=O)O)NC(=O)[C@H](CO)NC(=O)[C@@H](NC(=O)[C@H](Cc1ccccc1)NC(=O)[C@@H](NC(=O)CNC(=O)[C@H](CCC(N)=O)NC(=O)[C@H](CO)NC(=O)[C@@H](N)Cc1c[nH]cn1)[C@@H](C)O)[C@@H](C)O)C(=O)N[C@@H](CCC(=O)O)C(=O)N[C@@H](CO)C(=O)N[C@@H](CCCNC(=N)N)C(=O)N[C@@H](CCCNC(=N)N)C(=O)N[C@@H](C)C(=O)N[C@@H](CCC(N)=O)C(=O)N[C@@H](CCC(=O)O)C(=O)N[C@@H](Cc1ccccc1)C(=O)N[C@H](C(=O)N[C@@H](CCC(=O)O)C(=O)N[C@@H](Cc1c[nH]c2ccccc12)C(=O)N[C@@H](CC(C)C)C(=O)N[C@@H](CC(C)C)C(=O)N[C@@H](C)C(=O)N[C@H](C(=O)NCC(=O)N1CCC[C@H]1C(=O)N[C@@H](CCC(=O)O)C(=O)N[C@@H](CO)C(=O)NCC(=O)N[C@@H](C)C(=O)N1CCC[C@H]1C(=O)N1CCC[C@H]1C(=O)N1CCC[C@H]1C(=O)N[C@@H](CO)C(=O)O)[C@@H](C)O)[C@@H](C)CC

biological target: T1, human GLP-1 receptor (human, UniProt P43220 24-463); assay: cell-based or functional assay

Going from B1 to B2, the “EC50 hGLP-1 R [pM], cAMP formation” value rises from 2190 pM to 9300 pM.

Going from B3 to B4, the “EC50 hGLP-1 R [pM], cAMP formation” value rises from 4190 pM to 5800 pM.

biological target: T2, human glucagon receptor (human, UniProt P47871 26-477); assay: cell-based or functional assay
T2 sequence (P47871 26-477): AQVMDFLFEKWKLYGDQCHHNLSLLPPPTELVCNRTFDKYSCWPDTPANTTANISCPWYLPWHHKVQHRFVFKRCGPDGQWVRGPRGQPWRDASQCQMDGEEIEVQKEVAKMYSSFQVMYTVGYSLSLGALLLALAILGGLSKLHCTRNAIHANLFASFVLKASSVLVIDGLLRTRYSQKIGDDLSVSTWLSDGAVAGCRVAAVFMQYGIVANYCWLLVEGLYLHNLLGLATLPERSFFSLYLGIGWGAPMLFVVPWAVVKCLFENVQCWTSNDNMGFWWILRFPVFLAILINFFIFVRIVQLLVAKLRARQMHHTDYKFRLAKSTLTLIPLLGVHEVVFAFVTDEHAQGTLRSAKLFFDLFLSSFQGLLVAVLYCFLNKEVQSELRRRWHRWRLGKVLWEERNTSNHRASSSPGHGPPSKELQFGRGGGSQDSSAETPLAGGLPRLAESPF

Going from B1 to B2, the “EC50 hGLUC R [pM], cAMP formation” value falls from 0.6 pM to 0.5 pM.

Going from B3 to B4, the “EC50 hGLUC R [pM], cAMP formation” value falls from 2.4 pM to 2.2 pM.

biological target: T1, human GLP-1 receptor; assay: cell-based or functional assay; remark: another data set of the same source

Going from B1 to B2, the “EC50 hGLP-1R, cAMP formation” value rises from 2.19 nM to 9.3 nM (4.2-fold).

B3 and B4 are within 1.5-fold of each other in “EC50 hGLP-1R, cAMP formation” value: 4.19 nM for the first, 5.8 nM for the second.

B5 was tested, and the “EC50 hGLP-1R, cAMP formation” value was 0.358 nM.

biological target: T2, human glucagon receptor; assay: cell-based or functional assay; remark: another data set of the same source

B1 and B2 are within 1.5-fold of each other in “EC50 hGlucagon-R, cAMP formation” value: 0.0006 nM for the first, 0.0005 nM for the second.

B3 and B4 are within 1.5-fold of each other in “EC50 hGlucagon-R, cAMP formation” value: 0.0024 nM for the first, 0.0022 nM for the second.

With B5 the “EC50 hGlucagon-R, cAMP formation” value was 0.0014 nM.
